Experiment in all cases: ITC
A general note: Isothermal titration calorimetry measures the heat released or taken up as one component is titrated into another.

The target of assay [1] is PWWP domain of dP75 (residues 8-91) (Drosophila).
In assay [2] the target is dP75 IBD-containing C-terminus region (residues 209-445) (Drosophila).
The target is the same in assay [3]. This is another data set of the same source.

Where two headings read alike, the source gives them in different places.

A word on the Kd: it is the constant that tells how readily two partners part at equilibrium. Read a low Kd as higher affinity.

H3K36me3 peptide came in with a dissociation constant Kd in assay [1] above 500 µM.

The molecule “Jil-1 peptide from the proximal site (…; residues 984-1004)” yielded a Kd in assay [2] of 0.8 µM.

Take KREENFYGFSK [Jil-1 peptide at the distal site (…; residues 1102-1112)]: in assay [3], the Kd stood at 120 µM.

The record behind these values is doi:10.1101/856021.
